Numbering of substitutions follows the chain as printed.

Results on 11 molecules are retold here after US20200317816A1 (Novartis, published 2020).

The labels stand for the following.
B1: IDT2 anti-NOV1401 Fab (Fab, V domains shown)
VH: QVQLVESGGGLVKPGGSLRLSCAASGFTFSSAAVHWVRQAPGKGLEWVGRIKSKADGGTTDYAAPVKGRFTISRDDSKNTLYLQMNSLKTEDTAVYYCARDSPSISSYSIPYFSGMDVWGQGTLVTVSS
VL: DIQMTQSPSSLSASVGDRVTITCRASQGIRAWLNWYQQKPGKAPKLLIYAASSLQSGVPSRFSGSGSGTDFTLTISSLQPEDFATYYCHQYITHPPTFGQGTKVEIKR
notes: Human Fab; The heavy chain entry is VH-CH1 (Fd); also called antidote
B2: IDT9 anti-NOV1401 Fab (Fab, V domains shown)
VH: QVQLVQSGAEVKKPGASVKVSCKASGYTFTNYYVHWVRQAPGQGLEWMGWINPYNGNTNYAQKFQGRVTMTRDTSISTAYMELSRLRSEDTAVYYCARGASSIRMSYYLDVWGQGTLVTVSS
VL: B1 VL with G28S, R30S, A31N, W32Y, S53N, H89F, I92T, T93H, H94S, P96A
notes: as for B1
B3: IDT7 anti-NOV1401 Fab (Fab, V domains shown)
VH: QVQLVESGGGLVKPGGSLRLSCAASGFTFSSNAMHWVRQAPGKGLEWVGRIKSKTDGGTTDYAAPVKGRFTISRDDSKNTLYLQMNSLKTEDTAVYYCARDHYYYPFAYWGQGTLVTVSS
VL: B1 VL with G28S, A31Y, W32N, N34A, T93A, H94K, P96I
notes: as for B1
B4: IDT3 anti-NOV1401 Fab (Fab, V domains shown)
VH: B1 VH with S30Q
VL: B1 VL
notes: as for B1
B5: IDT8 anti-NOV1401 Fab (Fab, V domains shown)
VH: B3 VH with D56S
VL: B1 VL with G28S, A31Y, W32N, N34A, T93A, H94K, P96I
notes: as for B1
B6: IDT5 anti-NOV1401 Fab (Fab, V domains shown)
VH: B1 VH with G57A
VL: B1 VL
notes: as for B1
B7: IDT10 anti-NOV1401 Fab (Fab, V domains shown)
VH: B2 VH with N55S
VL: B1 VL with G28S, R30S, A31N, W32Y, S53N, H89F, I92T, T93H, H94S, P96A
notes: as for B1
B8: IDT4 anti-NOV1401 Fab (Fab, V domains shown)
VH: B1 VH with D56S
VL: B1 VL
notes: as for B1
B9: IDT1 anti-NOV1401 Fab (Fab, V domains shown)
VH: QVQLLESGGGLVQPGGSLRLSCAASGFTFSDYAMSWVRQAPGKGLEWVSVIDYSSSNTYYADSVKGRFTISRDNSKNTLYLQMNSLRAEDTAVYYCAREGYSYRSIRFDYWGQGTLVTVSS
VL: DIQMTQSPSSLSASVGDRVTITCRASQSISSNLNWYQQKPGKAPKLLIYAASNLQSGVPSRFSGSGSGTDFTLTISSLQPEDFATYYCLQFDHTPFTFGQGTKVEIKR
notes: The heavy chain entry is VH-CH1 (Fd); also called antidote
B10: IDT6 anti-NOV1401 Fab (Fab, V domains shown)
VH: QVQLVQSGAEVKKPGESLKISCKGSGYSFTNYWIGWVRQMPGKGLEWMGIIFPGVSYTKYSPSFQGQVTISADKSISTAYLQWSSLKASDTAMYYCARGSDQTLRGSRAMDYWGQGTLVTVSS
VL: QSALTQPASVSGSPGQSITISCTGTSSDVGISNYVSWYQQHPGKAPKLMIYEVSNRPSGVSNRFSGSKSGNTASLTISGLQAEDEADYYCQSYTSLNYVFGGGTKLTVLG
notes: Human Fab with a lambda light chain; The heavy chain entry is VH-CH1 (Fd); also called antidote
B11: anti-FXI/FXIa antibody NOV1401 (antibody, human IgG1, lambda, V domains shown)
VH: QVQLLESGGGLVQPGGSLRLSCAASGFTFSTAAMSWVRQAPGKGLEWVSGISGSGSSTYYADSVKGRFTISRDNSKNTLYLQMNSLRAEDTAVYYCARELSYLYSGYYFDYWGQGTLVTVSS
VL: QSVLTQPPSASGTPGQRVTISCSGSSSNIGSNDVSWYQQLPGTAPKLLIYKNYNRPSGVPDRFSGSKSGTSASLAISGLQSEDEADYYCSAWDQRQFDVVFGGGTKLTVLG

The target of the first test is B11. Nature of the test: cell-based or functional assay.
For the molecule B1, the “percentage reversal of NOV1401 aPTT prolongation, NOV1401/anti NOV1401 ratio 1/1 (n/n)” value was determined as 21%; the “percentage reversal of NOV1401 aPTT prolongation, NOV1401/anti NOV1401 ratio 1/3 (n/n)” value amounted to 42%; the “percentage reversal of NOV1401 aPTT prolongation, NOV1401/anti NOV1401 ratio 1/10 (n/n)” value turned out to be 55%.
In the same order, the values of B2 are 10%, 25% and 46%.
The matching figures for B3: 16%, 37% and 54%.
In the same order, the values of B4 are 9%, 35% and 58%.
For the molecule B5, the “percentage reversal of NOV1401 aPTT prolongation, NOV1401/anti NOV1401 ratio 1/1 (n/n)” value came out at 8%; the “percentage reversal of NOV1401 aPTT prolongation, NOV1401/anti NOV1401 ratio 1/3 (n/n)” value stood at 25%; the “percentage reversal of NOV1401 aPTT prolongation, NOV1401/anti NOV1401 ratio 1/10 (n/n)” value turned out to be 42%.
The matching figures for B6: 17%, 42% and 56%.
The matching figures for B7: 12%, 25% and 40%.
In the same order, the values of B8 are 10%, 27% and 39%.
In the case of B9, the “percentage reversal of NOV1401 aPTT prolongation, NOV1401/anti NOV1401 ratio 1/1 (n/n)” value turned out to be 12%; the “percentage reversal of NOV1401 aPTT prolongation, NOV1401/anti NOV1401 ratio 1/3 (n/n)” value was found to be 45%; the “percentage reversal of NOV1401 aPTT prolongation, NOV1401/anti NOV1401 ratio 1/10 (n/n)” value came to 64%.
The matching figures for B10: 9%, 22% and 38%.

The target in a further test is B11. The test can be described thus: SPR (ProteOn XPR36), NOV1401 amine-coupled on the chip, Fab as analyte 0.125-4 nM, Langmuir 1:1 fit, 25 C; n=1.
Protocol: (§1) SPR binding experiments were performed on a ProteOn XPR36 instrument (Bio-Rad Laboratories, Inc.) in PBS/T buffer (50 mM phosphate, 150 mM NaCl, pH 7.4, 0.005% v/v Tween-20) at 25° C. […] Unreacted groups were blocked by injecting 1 M ethanolamine.
(§2) Blank surfaces were used for background corrections. There was no need to regenerate surfaces since the ProteOn protein interaction array system allows to run up to six binding experiments on an identical surface in parallel.
(§3) Data processing and analysis including kon, koff, and KD determination were performed with the ProteOn Manager™ software version 3.1.0.6. Sensorgrams were fitted by applying a Langmuir 1:1 binding model (Rmax set at global) and dissociation constants were calculated from kon and koff.
Molecule B1 registered a Kd of 0.23 nM.

A further test has as its target B11. The test can be described thus: cell-based or functional assay. The source holds these as a separate data set.
As to B1, the “percentage reversal of the NOV1401 effect on thrombin generation (TGA), NOV1401/anti NOV1401 ratio 1/1 (n/n)” value came out at 55%; the “percentage reversal of the NOV1401 effect on thrombin generation (TGA), NOV1401/anti NOV1401 ratio 1/3 (n/n)” value was 57%; the “percentage reversal of the NOV1401 effect on thrombin generation (TGA), NOV1401/anti NOV1401 ratio 1/10 (n/n)” value came out at 61%.
In the same order, the values of B2 are 41%, 61% and 72%.
On to B3, for which the “percentage reversal of the NOV1401 effect on thrombin generation (TGA), NOV1401/anti NOV1401 ratio 1/1 (n/n)” value was determined as 50%; the “percentage reversal of the NOV1401 effect on thrombin generation (TGA), NOV1401/anti NOV1401 ratio 1/3 (n/n)” value is 66%; the “percentage reversal of the NOV1401 effect on thrombin generation (TGA), NOV1401/anti NOV1401 ratio 1/10 (n/n)” value stood at 71%.
In the same order, the values of B4 are 31%, 47% and 67%.
The matching figures for B5: 41%, 56% and 69%.
The matching figures for B6: 55%, 56% and 72%.
As to B7, the “percentage reversal of the NOV1401 effect on thrombin generation (TGA), NOV1401/anti NOV1401 ratio 1/1 (n/n)” value was 37%; the “percentage reversal of the NOV1401 effect on thrombin generation (TGA), NOV1401/anti NOV1401 ratio 1/3 (n/n)” value stood at 45%; the “percentage reversal of the NOV1401 effect on thrombin generation (TGA), NOV1401/anti NOV1401 ratio 1/10 (n/n)” value stood at 57%.
In the same order, the values of B8 are 33%, 53% and 60%.
The matching figures for B9: 49%, 55% and 55%.
In the same order, the values of B10 are 18%, 41% and 37%.

In the next test the target is Human FXI in normal human plasma (human, UniProt P03951 19-625). The test can be described thus: cell-based or functional assay.
Chain of Human FXI in normal human plasma (P03951 19-625 C226S limits assumed): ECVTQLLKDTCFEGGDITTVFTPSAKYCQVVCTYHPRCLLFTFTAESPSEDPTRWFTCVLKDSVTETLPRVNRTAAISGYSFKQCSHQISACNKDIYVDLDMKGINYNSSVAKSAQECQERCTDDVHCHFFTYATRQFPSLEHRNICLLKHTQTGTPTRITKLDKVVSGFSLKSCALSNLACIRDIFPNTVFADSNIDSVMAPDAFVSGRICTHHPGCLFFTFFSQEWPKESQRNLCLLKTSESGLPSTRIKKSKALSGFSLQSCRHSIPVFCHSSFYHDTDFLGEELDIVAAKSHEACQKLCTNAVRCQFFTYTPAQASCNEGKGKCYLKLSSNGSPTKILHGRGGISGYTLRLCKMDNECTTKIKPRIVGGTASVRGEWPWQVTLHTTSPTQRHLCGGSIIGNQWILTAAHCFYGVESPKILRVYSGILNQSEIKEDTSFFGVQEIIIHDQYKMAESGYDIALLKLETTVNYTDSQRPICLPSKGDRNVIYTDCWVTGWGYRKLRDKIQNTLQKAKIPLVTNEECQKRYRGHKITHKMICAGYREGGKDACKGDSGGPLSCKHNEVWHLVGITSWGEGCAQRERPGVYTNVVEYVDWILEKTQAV
Take B11: the “IC50 of NOV1401 for reduction of peak thrombin in the TGA in human plasma” value worked out at 50 nM.

A further test deals with B11. The test can be described thus: Solution equilibrium titration (SET): constant Fab, NOV1401 titrated in solution, free Fab captured on biotinylated NOV1401, luminescence (RLU) read, 1:1 fit.
Protocol: (§4) After washing the plate again three times, 30 μl of detection reagent (LumiGLO Peroxidase Chemiluminescent Substrate, KPL#54-61-01) was added to each well. Electrochemiluminescence (ECL) signals were generated and detected immediately with a luminescence imager (SpectraMax M5, Molecular Devices, LLC).
(§5) Average ECL-signals were calculated from duplicate measurements within each assay. Data were baseline adjusted by subtracting the lowest value from all data points and plotted against the corresponding antigen concentration.
In turn, B3 yielded a Kd of 0.16 nM.
As for B5, the Kd was 0.96 nM.

A further test deals with B11. Nature of the test: SPR (ProteOn XPR36), NOV1401 amine-coupled on the chip, Fab as analyte 0.125-4 nM, Langmuir 1:1 fit, 25 C; average of n=2.
Protocol: as §1, §2, §3
For the molecule B2, the affinity, expressed as Kd, was 1.92 nM.
With B3, the affinity, expressed as Kd, was 0.33 nM.
On the same count and under the same terms, for B4 the value was 0.24 nM; for B5, 2.15 nM; for B6, 0.35 nM.
With B7, binding was put at a Kd of 5.97 nM.
The same measure, in the same setting: for B8 the value was 0.31 nM; for B9, 0.44 nM.
Still for that read-out and setting: for B10 the value was 10.1 nM.

A further test has as its target B11. The test can be described thus: solution equilibrium titration (SET), constant Fab with NOV1401 titrated in solution, free Fab captured on biotinylated NOV1401, 1:1 fit; average of n=3.
Protocol: as §4, §5
Molecule B1 came in with a Kd of 0.1 nM.
For B5, binding was characterised by a dissociation constant (Kd) of 0.16 nM.
Still for that read-out and setting: for B6 the value was 0.14 nM.

The next test deals with B11. Nature of the test: solution equilibrium titration (SET), constant Fab with NOV1401 titrated in solution, free Fab captured on biotinylated NOV1401, 1:1 fit; average of n=2.
Protocol: as §4, §5
Consider B2, for which the affinity, expressed as Kd, was 0.68 nM.
The same measure, in the same setting: then B3, with 0.96 nM; and B4, with 0.1 nM; and B7, with 1.19 nM.
On the same count and under the same terms, for B8 the value was 0.97 nM.
On the same count and under the same terms, then B9, with 0.11 nM.
